Reference: PMC3744483, “Swiprosin-1 Is a Novel Actin Bundling Protein That Regulates Cell Spreading and Migration” (PLoS ONE, 2013)

T1: GST-tagged wild-type swiprosin-1 (human, UniProt Q96C19 1-240)
T1 construct: swiprosin-1, human, full length, in pGEX-4T-1; source: E. coli BL21, purified (glutathione beads, eluted with glutathione)
T1 sequence (looked up): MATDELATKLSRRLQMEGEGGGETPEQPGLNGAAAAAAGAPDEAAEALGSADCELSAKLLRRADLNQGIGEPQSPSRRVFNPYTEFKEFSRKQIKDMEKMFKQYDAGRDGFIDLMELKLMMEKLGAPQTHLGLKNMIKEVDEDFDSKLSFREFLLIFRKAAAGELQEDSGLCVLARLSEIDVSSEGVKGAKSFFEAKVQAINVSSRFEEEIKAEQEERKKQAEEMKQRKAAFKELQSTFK

B1: His-tagged wild-type swiprosin-1 (natural protein, human, UniProt Q96C19 1-240, looked up)
chain: MATDELATKLSRRLQMEGEGGGETPEQPGLNGAAAAAAGAPDEAAEALGSADCELSAKLLRRADLNQGIGEPQSPSRRVFNPYTEFKEFSRKQIKDMEKMFKQYDAGRDGFIDLMELKLMMEKLGAPQTHLGLKNMIKEVDEDFDSKLSFREFLLIFRKAAAGELQEDSGLCVLARLSEIDVSSEGVKGAKSFFEAKVQAINVSSRFEEEIKAEQEERKKQAEEMKQRKAAFKELQSTFK
notes: swiprosin-1, human, full-length clone amplified from pOTB7 (RZPD), cloned into a modified pET-28a; The modified pET-28a carries a TEV protease cleavage site (ENLYFQ/G) with the N-terminal tandem His tags; no cleavage is described and the protein is detected with anti-His; also called Swip-1; source: E. coli BL21 (DE3), purified (Ni-NTA agarose); not shown: His tag (tandem), N-terminal, kept

Assays:
[1] = target: B1; experiment: pull-down; GST pull-down: equal amounts of purified GST_Swip-1 (wild type or mutants) and His_Swip-1 with glutathione-Sepharose 4B beads, 2 h at 4°C, 50 mM Hepes pH 7.4, 150 mM NaCl, 1.5 mM MgCl2, 1% Triton X-100; blot with anti-His; also with or without 2 mM EGTA; settings: both partners purified
[2] = target: T1, GST-tagged wild-type swiprosin-1; experiment: as above; settings: both partners purified

| binding result [1] | binding result [2] | Binder |
| --- | --- | --- |
| binds |  | AINVSSRFEEEIKAEQEERKKQAEEMKQRKAAFKELQSTFK (domain or fragment, human, UniProt Q96C19 200-240, looked up, swiprosin-1, human, residues 200–240 (C-terminal coiled-coil region), in pGEX-4T-1; also called 200–240 (i); source: E. coli BL21, purified (glutathione beads, eluted with glutathione)) [GST-tagged swiprosin-1 200–240] |
| binds |  | GST-tagged swiprosin-1 163–240 (domain or fragment, human, UniProt Q96C19 163-240, looked up, swiprosin-1, human, residues 163–240 (C-terminal region with the coiled-coil domain), in pGEX-4T-1; also called 163–240 (h); source: E. coli BL21, purified (glutathione beads, eluted with glutathione)) GELQEDSGLCVLARLSEIDVSSEGVKGAKSFFEAKVQAINVSSRFEEEIKAEQEERKKQAEEMKQRKAAFKELQSTFK |
|  | binds | B1 |
